We go through two molecules from publication PMC7890179, “Adiponectin forms a complex with atherogenic LDL and inhibits its downstream effects” (Journal of Lipid Research, 2020).

Test [1] addresses copper-oxidized low density lipoprotein (human (endogenous in human plasma)). Briefly: ELISA; native LDL or oxLDL (1 μg/ml) captured on anti-apoB monoclonal antibody HUC20 on a 384-well plate; recombinant adiponectin added for 1 h at 25°C, washed with PBS, detected with anti-adiponectin polyclonal antibody; apparent Kd, 1:1 reversible binding assumed. In general terms: In an ELISA, binding on a coated surface is turned into a signal by an enzyme label.

Test [2] has as its target copper-oxidized low density lipoprotein (human (endogenous in human plasma), oxidized with 7.5 μM CuSO4 for 16 h (residues not stated)). Described as above. Conditions: both partners purified.

For “globular form of adiponectin protein with an N-terminal His-tag sequence (domain or fragment; other documents disagree on this pair)”, the Kd in test [1] came out at 45.3 nM.

B1: Human recombinant full-length adiponectin protein (composed of the LMW, MMW, and HMW isoforms) with a C-terminal FLAG sequence (natural protein, UniProt Q15848 19-244, looked up)
chain: ETTTQGPGVLLPLPKGACTGWMAGIPGHPGHNGAPGRDGRDGTPGEKGEKGDPGLIGPKGDIGETGVPGAEGPRGFPGIQGRKGEPGEGAYVYRSAFSVGLETYVTIPNMPIRFTKIFYNQQNHYDGSTGKFHCNIPGLYYFAYHITVYMKDVKVSLFKKDKAMLFTYDQYQENNVDQASGSVLLHLEVGDQVWLQVYGEGERNGLYADNDNDSTFTGFLLYHDTN
notes: adiponectin, human, full-length recombinant protein; A mixture of trimers (LMW), hexamers (MMW) and HMW multimers; Secreted from HEK293 cells, so the signal peptide is probably absent (surmised); also called AdN; human recombinant full-length AdN; source: bought: BioVendor cat. no; RD172023100, produced in HEK293 cells
For B1, the Kd in test [2] is 15.7 nM.
